This note sets out measurements from paper PMC6629641, “DNA translocation mechanism of the MCM complex and implications for replication initiation” (Nature Communications, 2019).

The stoichiometry N is a count of units in the complex or per binding partner.

Data set [1] concerns the molecule itself. Kind of data set: SEC; last gel-filtration step after removal of the SUMO tag and anion exchange; oligomer judged from the elution volume.
Data set [2] concerns the molecule itself. Nature of the data set: crystal structure; SsoMCM-GGSGGS-ΔC with a 12-mer oligonucleotide, magnesium, ADP and beryllium fluoride; hanging drop, 18 °C, 50 mM MES pH 6.0, 100 mM NaCl, 20 mM MgCl2, 9% PEG 8000; 3.15 Å.

B1: wild-type full-length SsoMCM (enzyme, Sulfolobus solfataricus, UniProt Q9UXG1 1-686, looked up)
chain: MEIPSKQIDYRDVFIEFLTTFKGNNNQNKYIERINELVAYRKKSLIIEFSDVLSFNENLAYEIINNTKIILPILEGALYDHILQLDPTYQRDIEKVHVRIVGIPRVIELRKIRSTDIGKLITIDGILVKVTPVKERIYKATYKHIHPDCMQEFEWPEDEEMPEVLEMPTICPKCGKPGQFRLIPEKTKLIDWQKAVIQERPEEVPSGQLPRQLEIILEDDLVDSARPGDRVKVTGILDIKQDSPVKRGSRAVFDIYMKVSSIEVSQKVLDEVIISEEDEKKIKDLAKDPWIRDRIISSIAPSIYGHWELKEALALALFGGVPKVLEDTRIRGDIHILIIGDPGTAKSQMLQFISRVAPRAVYTTGKGSTAAGLTAAVVREKGTGEYYLEAGALVLADGGIAVIDEIDKMRDEDRVAIHEAMEQQTVSIAKAGIVAKLNARAAVIAAGNPKFGRYISERPVSDNINLPPTILSRFDLIFILKDQPGEQDRELANYILDVHSGKSTKNIIDIDTLRKYIAYARKYVTPKITSEAKNLITDFFVEMRKKSSETPDSPILITPRQLEALIRISEAYAKMALKAEVTREDAERAINIMRLFLESVGVDMESGKIDIDTIMTGKPKSAREKMMKIIEIIDSLAVSSECAKVKDILKEAQQVGIEKSNIEKLLTDMRKSGIIYEAKPECYKKV
notes: minichromosome maintenance (MCM) protein of Sulfolobus solfataricus, full length; also called pEE045.1; source: E. coli BL21(DE3)-RIPL, purified (Ni-NTA, size-exclusion, Ulp1 cleavage, anion exchange, gel filtration); not shown: His6, N-terminal, cleaved; SUMO, N-terminal, cleaved
As to B1, in data set [1], the “stoichiometry N” value was 6.

B2: SsoMCM-GGSGGS-ΔC (enzyme, Sulfolobus solfataricus, UniProt Q9UXG1 1-612, looked up)
chain: MEIPSKQIDYRDVFIEFLTTFKGNNNQNKYIERINELVAYRKKSLIIEFSDVLSFNENLAYEIINNTKIILPILEGALYDHILQLDPTYQRDIEKVHVRIVGIPRVIELRKIRSTDIGKLITIDGILVKVTPVKERIYKATYKHIHPDCMQEFEWPEDEEMPEVLEMPTICPKCGKPGQFRLIPEKTKLIDWQKAVIQERPEEVPSGQLPRQLEIILEDDLVDSARPGDRVKVTGILDIKQDSPVKRGSRAVFDIYMKVSSIEVSGGSGGSSEEDEKKIKDLAKDPWIRDRIISSIAPSIYGHWELKEALALALFGGVPKVLEDTRIRGDIHILIIGDPGTAKSQMLQFISRVAPRAVYTTGKGSTAAGLTAAVVREKGTGEYYLEAGALVLADGGIAVIDEIDKMRDEDRVAIHEAMEQQTVSIAKAGIVAKLNARAAVIAAGNPKFGRYISERPVSDNINLPPTILSRFDLIFILKDQPGEQDRELANYILDVHSGKSTKNIIDIDTLRKYIAYARKYVTPKITSEAKNLITDFFVEMRKKSSETPDSPILITPRQLEALIRISEAYAKMALKAEVTREDAERAINIMRLFLESVGVDMESGKIDID
notes: minichromosome maintenance (MCM) protein of Sulfolobus solfataricus, cut after amino acid 612 (the C-terminal HTH domain deleted); Homohexamer; crystallised with a 12-mer ssDNA, Mg2+, ADP and ADP-BeF3; also called nearly full-length SsoMCM; MCM hexamer; source: E. coli BL21(DE3)-RIPL, purified (Ni-NTA, size-exclusion, Ulp1 cleavage, anion exchange, gel filtration); not shown: His6, N-terminal, …
B2: the “stoichiometry N” value in data set [2] was 6.
